In US20210205286A1 (UNM RAINFOREST INNOVATIONS, published 2021):

Experiments:
[1] = molecular target: T1, USP9X (endogenous) (UniProt Q93008 1-2554, limits assumed); experiment: co-IP, anti-FLAG IP, blot for endogenous USP9X, HEK293T (FIG. 3C)
T1 construct: also called deubiquitinating enzyme USP9X; DUB USP9X

[2] = molecular target: T2, LAMP2 (endogenous) (UniProt P13473 29-410, limits assumed, glycosylated (binding told as glycan-dependent)); experiment: co-IP, anti-FLAG IP, blot for endogenous LAMP2, HEK293T, 1 mM LLOMe 30 min (FIG. 2B)
T2 construct: Integral lysosomal membrane glycoprotein
T2 sequence (P13473 29-410 limits assumed): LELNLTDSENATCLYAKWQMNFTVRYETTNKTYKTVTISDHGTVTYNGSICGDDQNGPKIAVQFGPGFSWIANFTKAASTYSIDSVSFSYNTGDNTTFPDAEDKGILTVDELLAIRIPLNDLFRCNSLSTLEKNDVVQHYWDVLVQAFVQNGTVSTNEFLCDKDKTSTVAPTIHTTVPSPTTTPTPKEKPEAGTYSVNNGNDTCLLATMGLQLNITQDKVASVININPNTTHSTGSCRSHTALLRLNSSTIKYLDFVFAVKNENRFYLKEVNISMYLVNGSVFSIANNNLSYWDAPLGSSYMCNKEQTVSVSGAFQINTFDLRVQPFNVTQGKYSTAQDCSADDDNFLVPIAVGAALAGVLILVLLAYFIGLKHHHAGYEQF
Procedure: (A) APEX2 proximity biotinylation analysis. […] Biotinylated proteins were then affinity-isolated on streptavidin beads and analyzed by immunoblotting in response to LLOMe. (B) Co-immunoprecipitation (Co-IP) analysis of interactions between LAMP2 and Gal9. HEK293T cells expressing FLAG-tagged Gal9 or glycan recognition mutant forms of Gal9 (individual R65A, R239A, or double/combined R65A/R239A were treated with 1 mM LLOMe for 30 min in full medium. IP, anti-FLAG antibody; immunoblotting with endogenous LAMP2. (C) Immunofluorescence confocal microscopy visualization of Gal9 puncta in Hula cells transfected with FLAG-Gal9^WT or double mutant FLAG-Gal9^{R65A/R239A} and treated with lysosomal damaging agent (1 mM LLOMe) in full medium for 30 min. Cells were immunostained for FLAG-Gal9. Scale bar, 10 μM . (D) Analysis of FLAG-Gal9 puncta formation in Huh7 WT cells transfected with FLAG-Gal9 and respective mutants. Cells as in (C) were treated as in (C), measured by FICM (blue: nuclei, Hoechst 33342; green: anti-FLAG antibody, Alexa-488). White masks, computer algorithm-defined cell boundaries; green masks, computer-identified Gal9 puncta. (E) Immunofluorescence confocal microscopy visualization of Ub puncta in Gal9WT^Huh7 and Gal9KO^Huh7 cells complemented with FLAG-Gal9^WT or FLAG-Gal9^{R65A/R239A}. […] (F) Endogenous Ub puncta quantified by HCM. […]

[3] = molecular target: T2, LAMP2 (endogenous); experiment: co-IP, anti-GFP IP of GFP-tagged galectins, blot for endogenous LAMP2 (FIG. S2B)
From the text: (B) Co-IP analysis of galectins and LAMP2. Cells expressing GFP-tagged galectins were subjected to anti-GFP immunoprecipitation followed by immunoblotting for endogenous LAMP2. (C) Schematic, strategy for stable HeLa Flp-In Gal9^Tet-ON which stably express mCherry-Gal9 induced by tetracycline. HeLa Flp-In Gal9^Tet-ON cells treated with LLOMe in a time dependent manner quantified by HCM. (D) HCM visualization of mCherry-Gal9 localization relative to LAMP2-positive lysosomes. Cells as in (C) were treated with LLOMe for 30 min in full medium and immunostained for endogenous LAMP2 and mCherry Gal9. (E) Immunofluorescence confocal microscopy visualization of mCherry-Gal9 localization relative to LAMP2-positive lysosomes. Cells as in (D) immunostained for endogenous LAMP2 and mCherry Gal9. Scale bar, 10 μM. (F) HCM visualization of mCherry-Gal9 localization relative to endogenous Ub puncta. Cells as in (C) were treated with LLOMe for 30 min in full medium and immunostained for endogenous Ub and mCherry Gal9. (G) Immunofluorescence confocal microscopy visualization of mcherry-Gal9 localization relative to endogenous Ub and LAMP1-positive lysosomes. Cells as in (C) were treated with LLOMe for 30 min in full medium and immunostained for endogenous Ub, LAMP1 and mCherry Gal9. Scale bar, 10 μM. […]

T1 sequence (Q93008 whole entry): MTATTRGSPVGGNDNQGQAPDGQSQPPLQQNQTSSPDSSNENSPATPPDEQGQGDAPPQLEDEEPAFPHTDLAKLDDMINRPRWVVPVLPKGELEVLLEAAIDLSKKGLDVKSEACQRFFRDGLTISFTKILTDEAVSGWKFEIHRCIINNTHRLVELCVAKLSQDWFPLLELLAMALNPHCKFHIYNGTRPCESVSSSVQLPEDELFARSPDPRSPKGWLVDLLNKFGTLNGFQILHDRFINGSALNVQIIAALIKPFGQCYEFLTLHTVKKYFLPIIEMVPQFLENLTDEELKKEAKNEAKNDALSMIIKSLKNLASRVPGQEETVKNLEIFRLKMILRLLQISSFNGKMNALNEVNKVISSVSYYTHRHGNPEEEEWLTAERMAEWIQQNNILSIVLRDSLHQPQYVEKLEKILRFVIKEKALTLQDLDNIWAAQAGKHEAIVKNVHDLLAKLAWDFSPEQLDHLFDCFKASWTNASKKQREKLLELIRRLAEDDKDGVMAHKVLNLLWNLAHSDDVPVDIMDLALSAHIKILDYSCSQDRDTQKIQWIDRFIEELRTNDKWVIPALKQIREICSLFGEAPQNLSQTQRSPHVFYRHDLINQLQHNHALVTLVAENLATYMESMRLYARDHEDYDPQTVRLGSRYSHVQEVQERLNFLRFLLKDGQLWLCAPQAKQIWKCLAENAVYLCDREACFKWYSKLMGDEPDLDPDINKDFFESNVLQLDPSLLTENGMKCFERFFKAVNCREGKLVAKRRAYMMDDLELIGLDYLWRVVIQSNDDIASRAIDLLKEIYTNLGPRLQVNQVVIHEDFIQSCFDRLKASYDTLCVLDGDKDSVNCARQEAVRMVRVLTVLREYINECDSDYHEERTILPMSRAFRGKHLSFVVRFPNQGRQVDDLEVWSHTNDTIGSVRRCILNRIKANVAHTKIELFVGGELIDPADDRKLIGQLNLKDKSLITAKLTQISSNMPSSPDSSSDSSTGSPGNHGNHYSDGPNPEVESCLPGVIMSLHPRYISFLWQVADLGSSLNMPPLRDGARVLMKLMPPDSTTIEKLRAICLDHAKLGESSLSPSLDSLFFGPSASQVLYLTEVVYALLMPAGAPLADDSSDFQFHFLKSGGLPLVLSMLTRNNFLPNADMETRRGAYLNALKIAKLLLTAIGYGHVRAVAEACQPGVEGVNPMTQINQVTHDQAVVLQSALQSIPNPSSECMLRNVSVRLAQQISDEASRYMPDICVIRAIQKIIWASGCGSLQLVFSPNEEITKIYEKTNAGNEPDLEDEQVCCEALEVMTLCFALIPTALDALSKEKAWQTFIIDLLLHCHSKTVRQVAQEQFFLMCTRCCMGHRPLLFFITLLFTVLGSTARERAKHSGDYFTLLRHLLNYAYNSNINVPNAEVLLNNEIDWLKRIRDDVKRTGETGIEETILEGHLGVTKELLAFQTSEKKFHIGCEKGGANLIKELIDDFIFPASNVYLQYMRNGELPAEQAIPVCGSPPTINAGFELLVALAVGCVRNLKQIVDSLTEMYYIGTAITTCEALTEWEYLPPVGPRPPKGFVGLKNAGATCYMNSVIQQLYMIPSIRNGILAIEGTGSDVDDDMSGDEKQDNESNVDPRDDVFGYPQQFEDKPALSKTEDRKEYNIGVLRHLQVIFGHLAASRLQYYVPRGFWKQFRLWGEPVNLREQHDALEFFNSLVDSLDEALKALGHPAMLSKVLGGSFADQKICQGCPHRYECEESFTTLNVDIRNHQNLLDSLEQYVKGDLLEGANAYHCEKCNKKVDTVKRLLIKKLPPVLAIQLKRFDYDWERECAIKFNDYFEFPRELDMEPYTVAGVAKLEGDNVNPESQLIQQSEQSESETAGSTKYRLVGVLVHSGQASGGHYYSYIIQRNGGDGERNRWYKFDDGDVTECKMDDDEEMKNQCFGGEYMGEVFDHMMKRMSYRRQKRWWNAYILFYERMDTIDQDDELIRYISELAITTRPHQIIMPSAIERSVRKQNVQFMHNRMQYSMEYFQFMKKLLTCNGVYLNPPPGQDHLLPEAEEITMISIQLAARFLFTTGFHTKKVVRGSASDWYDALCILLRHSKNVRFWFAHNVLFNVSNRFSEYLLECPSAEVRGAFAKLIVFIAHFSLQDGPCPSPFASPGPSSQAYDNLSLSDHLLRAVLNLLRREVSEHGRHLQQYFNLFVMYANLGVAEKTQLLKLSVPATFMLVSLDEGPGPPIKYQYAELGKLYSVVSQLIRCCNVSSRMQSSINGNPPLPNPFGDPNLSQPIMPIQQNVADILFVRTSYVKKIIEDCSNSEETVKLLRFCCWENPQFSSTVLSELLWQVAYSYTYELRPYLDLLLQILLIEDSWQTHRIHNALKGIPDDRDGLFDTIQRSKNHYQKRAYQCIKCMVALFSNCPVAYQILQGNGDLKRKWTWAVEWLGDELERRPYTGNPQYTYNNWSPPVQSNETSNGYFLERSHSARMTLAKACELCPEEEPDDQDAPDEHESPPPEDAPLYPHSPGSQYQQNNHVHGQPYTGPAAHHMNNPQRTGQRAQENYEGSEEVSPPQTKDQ

B1: FLAG-Gal9^R65A/R239A (other, UniProt O00182-2 1-323, looked up)
chain: MAFSGSQAPYLSPAVPFSGTIQGGLQDGLQITVNGTVLSSSGTRFAVNFQTGFSGNDIAFHFNPAFEDGGYVVCNTRQNGSWGPEERKTHMPFQKGMPFDLCFLVQSSDFKVMVNGILFVQYFHRVPFHRVDTISVNGSVQLSYISFQPPGVWPANPAPITQTVIHTVQSAPGQMFSTPAIPPMMYPHPAYPMPFITTILGGLYPSKSILLSGTVLPSAQRFHINLCSGNHIAFHLNPAFDENAVVRNTQIDNSWGSEERSLPRKMPFVRGQSFSVWILCEAHCLKVAVDGQHLFEYYHRLRNLPTINRLEVGGDIQLTHVQT
notes: also called double mutant; glycan recognition mutant; not shown: FLAG tag
B1: binds [1]; no binding [2].

B2: GFP-Gal8 (other, UniProt O00214 1-317, looked up)
chain: MMLSLNNLQNIIYNPVIPFVGTIPDQLDPGTLIVIRGHVPSDADRFQVDLQNGSSMKPRADVAFHFNPRFKRAGCIVCNTLINEKWGREEITYDTPFKREKSFEIVIMVLKDKFQVAVNGKHTLLYGHRIGPEKIDTLGIYGKVNIHSIGFSFSSDLQSTQASSLELTEISRENVPKSGTPQLRLPFAARLNTPMGPGRTVVVKGEVNANAKSFNVDLLAGKSKDIALHLNPRLNIKAFVRNSFLQESWGEEERNITSFPFSPGMYFEMIIYCDVREFKVAVNGVHSLEYKHRFKELSSIDTLEINGDIHLLEVRSW
notes: also called Galectin 8; GFP-tagged galectin; not shown: GFP
B2: no binding [3].
